± gives the standard deviation of the averaged measurements.
System: ATP
Assay: switch fluorescence ratio, 500 uM ATP over buffer (Cy3 cluster intensity, sum of 5 cycles each) (fold (ratio)); higher = stronger signal-on switching upon ATP binding; sequences stand for … in TCGTCGGCAGCGTCAGATGTGTATAAGAGACAGTTTTTTTTTTTTTTTTTTTTTTTTT…TC
Details: aptamer strand: ATP DNA aptamer (quencher-CACCTGGGGGAGTATTGCGGAGGAAGG + anchor), 100 nM annealed; ATP concentration: 500 uM
How it was run: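 Cy3-labelled switching-strand clusters on a modified Illumina MiSeq flow-cell were annealed to 100 nM quencher-labelled ATP aptamer, imaged in selection buffer, then imaged after 15 min with 500 uM ATP at 22 °C. Five buffer/ATP cycles ran, with NaOH stripping and re-annealing between them. The fluorescence ratio is summed target-cycle over summed buffer-cycle Cy3 intensity per cluster, averaged per switch-domain sequence. Clusters outside 100-1000 RFU were excluded.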
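Further: ATP exposure 15 min at 22 °C before imaging.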

| Sequence | switch fluorescence ratio |
| --- | --- |
| TATTTAGTTG | 1 ± 0.024 |
| GGGGGAGGCG | 1.03 ± 0.082 |
| GCAGGTTGAG | 1.01 ± 0.044 |
| TAGGTGAAAC | 0.988 ± 0.016 |
| TGGGTAAACA | 1.02 ± 0.012 |
| CAATTTGTCT | 1.01 ± 0.028 |
| CAAATAAATT | 0.989 ± 0.029 |
| ATGGGTTTAA | 0.961 ± 0.063 |
| ATTGAACGGG | 1.02 ± 0.016 |
| TATATTTCTG | 0.986 ± 0.019 |
| CGGGAAAGTC | 0.996 ± 0.027 |
| TAGTAAGGGC | 1.02 ± 0.033 |
| GGTTTACAGC | 0.979 ± 0.012 |
| TATCCGTGGG | 0.973 ± 0.051 |
| CAAGAGGGTT | 0.99 ± 0.032 |
| GCTAAAACAT | 1.0086 ± 0.00063 |
| GAACATGATA | 1.02 ± 0.028 |
| TGCACAGTCG | 1.01 ± 0.036 |
| ATGAGCATGG | 1.1 ± 0.016 |
| GAGGCTATCT | 1.07 ± 0.0035 |
| ATAGTAAGTA | 0.996 ± 0.024 |
| GGGTCTAGCG | 1.01 ± 0.0065 |

| Sequence | switch fluorescence ratio |
| --- | --- |
| ACCAGATGCG | 1.01 ± 0.03 |
| ATTAGGGGTT | 1 ± 0.037 |
| GCCCCACCTG | 1.05 ± 0.029 |
| GGGTTAGGTA | 0.96 ± 0.053 |
| GGTGCGGGTG | 1.03 ± 0.051 |
| CGGGGATGAA | 1.01 ± 0.063 |
| TGCCAGATTT | 0.993 ± 0.041 |
| CGAAGGATCT | 1.02 ± 0.019 |
| TTAGGCGCAT | 1.03 ± 0.025 |
| TCGATGTCGT | 0.9927 ± 0.0059 |
| TTCGTTCTTC | 0.993 ± 0.019 |
| TACTGTAGGG | 1.12 ± 0.029 |
| AGAGGTATCT | 0.9872 ± 0.0046 |
| AGAGAACTTG | 0.983 ± 0.1 |
| AGGCCCGTTT | 1.02 ± 0.029 |
| GTTTTGGGTG | 1.09 ± 0.058 |
| AACTATTGTA | 1.01 ± 0.022 |
| GGTGGTCAGC | 1.012 ± 0.0049 |
| AAATTTAGCT | 1.0313 ± 0.0006 |
| ATGATTAAGA | 1.02 ± 0.019 |
| CATGGGGCGG | 1 ± 0.052 |
